Test results reported in paper PMC10927090, “Plasmodium falciparum contains functional SCF and CRL4 ubiquitin E3 ligases, and CRL4 is critical for cell division and membrane integrity” (PLOS Pathogens, 2024).

T1: GST-tagged C-terminal of PfCullin-1 (601-829 aa) (P. falciparum, UniProt Q8IAU5 601-829)
T1 construct: P. falciparum Cullin-1 (PfCullin-1, PF3D7_0811000), C-terminal coding region, residues 601-829, amplified from cDNA, in pGEX-6P-1; also called GST/Cul1C; GST/PfCul1C; source: E. coli BL21(DE3), purified (glutathione agarose, native conditions); not shown: GST, N-terminal, kept
T1 sequence (looked up): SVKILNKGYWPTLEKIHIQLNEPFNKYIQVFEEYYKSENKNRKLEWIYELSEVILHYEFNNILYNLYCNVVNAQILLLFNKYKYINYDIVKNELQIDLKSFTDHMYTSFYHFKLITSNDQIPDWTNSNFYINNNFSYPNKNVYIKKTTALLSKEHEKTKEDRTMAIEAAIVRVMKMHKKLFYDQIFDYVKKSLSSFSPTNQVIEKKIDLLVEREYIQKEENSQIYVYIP

T2: GST-tagged N-terminal of PfCullin-1 (1-300 aa) (P. falciparum, UniProt Q8IAU5 1-300)
T2 construct: P. falciparum Cullin-1 (PfCullin-1, PF3D7_0811000), N-terminal coding region, residues 1-300, in pGEX-6P-1; also called GST/Cul1N; GST/PfCul1N; source: E. coli BL21(DE3), purified (glutathione agarose, native conditions); not shown: GST, N-terminal, kept
T2 sequence (looked up): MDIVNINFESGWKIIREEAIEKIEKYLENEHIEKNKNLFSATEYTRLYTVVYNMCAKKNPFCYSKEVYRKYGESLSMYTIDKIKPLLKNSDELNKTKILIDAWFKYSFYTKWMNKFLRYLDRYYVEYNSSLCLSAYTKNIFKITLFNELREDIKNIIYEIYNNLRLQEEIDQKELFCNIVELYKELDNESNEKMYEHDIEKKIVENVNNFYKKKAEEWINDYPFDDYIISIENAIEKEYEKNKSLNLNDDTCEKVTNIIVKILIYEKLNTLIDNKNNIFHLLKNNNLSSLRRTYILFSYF

B1: 6×His/SUMO-tagged PfRbx1 (natural protein, P. falciparum, UniProt O77367 1-107, looked up)
chain: MADNITNDKRDIFKIHKWSAVAAWSWDISVDNCAICRNHIMDLCIECQAKTTDHENDKDKKIDKEGCTVAWGVCNHAFHLHCISRWIKARQVCPLDNTTWEFQKATD
notes: P. falciparum Rbx1 (PfRbx1, PF3D7_0319100), complete coding region, subcloned into pSMO; also called HisSUMO/Rbx; HisSUMO/PfRbx1; source: E. coli Rosetta-gami 2(DE3) pLysS, purified (Ni-NTA, native conditions); not shown: His6, N-terminal, kept; SUMO, N-terminal, kept
B2: 6×His-tagged PfSkp1 (natural protein, P. falciparum, UniProt Q8ID38 1-162, looked up)
chain: MKNDKIKLVSFEGDEFIVDKNTASMSTVIMNILEVMTAEEDTIPLPNIKTPILKKIIEYMEYHINNPADEIPKPLITSNLQDVVSSWDFDFVNTDKETLYELIEASNYLDIKPLLDLTCGKIASMMKDKTTEEIRAEFDIVNDFTREEEKQIREENRWCGDI
notes: P. falciparum Skp1 (PfSkp1, PF3D7_1367000), complete coding region amplified from genomic DNA, in pET28a; also called HisSkp; HisPfSkp1; source: E. coli Rosetta-gami 2(DE3) pLysS, purified (Ni-NTA, native conditions); not shown: His6, N-terminal, kept

Experiments:
[1] = molecular target: T1, GST-tagged C-terminal of PfCullin-1 …; test: far-Western, overlay or dot blot; dot blot protein overlay: different amounts of HisSkp, HisSUMO/Rbx or HisSUMO spotted on nitrocellulose, blocked (3% BSA in PBS-T), overlaid with 10 μg of GST or GST-tagged protein for 12 h at 4°C, detected with anti-GST antibodies; conditions: both partners purified
[2] = molecular target: T2, GST-tagged N-terminal of PfCullin-1 …; test: as above; conditions: both partners purified

Row | Binder | binding result [1] | binding result [2]
1 | B1 | binds | –
2 | B2 | – | binds
